B1: BBSome complex member BBS5 (Homo sapiens), Q8N3I7 (parent)
chain: MSVLDALWEDRDVRFDLSAQQMKTRPGEVLIDCLDSIEDTKGNNGDRGRLLVTNLRILWHSLALSRVNVSVGYNCILNITTRTANSKLRGQTEALYILTKCNSTRFEFIFTNLVPGSPRLFTSVMAVHRAYETSKMYRDFKLRSALIQNKQLRLLPQEHVYDKINGVWNLSSDQGNLGTFFITNVRIVWHANMNDSFNVSIPYLQIRSIKIRDSKFGLALVIESSQQSGGYVLGFKIDPVEKLQESVKEINSLHKVYSASPIFGVDYEMEEKPQPLEALTVEQIQDDVEIDSDGHTDAFVAYFADGNKQQDREPVFSEELGLAIEKLKDGFTLQGLWEVMS
partner: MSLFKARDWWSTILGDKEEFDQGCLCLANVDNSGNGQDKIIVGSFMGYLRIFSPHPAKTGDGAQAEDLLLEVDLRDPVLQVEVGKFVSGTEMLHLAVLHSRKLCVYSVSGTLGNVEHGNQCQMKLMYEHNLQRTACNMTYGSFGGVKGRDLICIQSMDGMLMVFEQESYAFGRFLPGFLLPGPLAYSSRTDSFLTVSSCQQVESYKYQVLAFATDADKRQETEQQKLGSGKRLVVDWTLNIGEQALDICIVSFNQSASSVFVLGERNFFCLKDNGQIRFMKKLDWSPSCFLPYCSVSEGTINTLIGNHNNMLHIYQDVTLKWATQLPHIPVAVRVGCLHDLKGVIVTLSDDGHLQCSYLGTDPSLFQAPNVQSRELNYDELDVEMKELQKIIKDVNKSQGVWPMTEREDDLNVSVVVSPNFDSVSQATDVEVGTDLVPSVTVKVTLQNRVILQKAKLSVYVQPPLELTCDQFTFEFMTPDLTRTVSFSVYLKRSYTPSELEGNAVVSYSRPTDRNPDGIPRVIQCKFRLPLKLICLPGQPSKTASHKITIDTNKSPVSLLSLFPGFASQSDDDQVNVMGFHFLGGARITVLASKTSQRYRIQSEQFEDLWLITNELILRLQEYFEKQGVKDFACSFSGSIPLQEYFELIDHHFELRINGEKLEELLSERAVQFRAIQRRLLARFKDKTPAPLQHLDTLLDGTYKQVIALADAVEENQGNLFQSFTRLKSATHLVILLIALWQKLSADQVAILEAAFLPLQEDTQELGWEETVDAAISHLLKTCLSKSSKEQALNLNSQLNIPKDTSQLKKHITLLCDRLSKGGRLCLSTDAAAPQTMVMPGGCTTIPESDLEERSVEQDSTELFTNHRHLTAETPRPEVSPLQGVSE

Variants of: B1
Details: with pthb1_human BBS9, Q3SYG4

Variant | effect of a mutation on the interaction
MSVLDALWEDRDVRFDLSAQQMKTRPGEVLIDCLDSIEDTKGNNGDRGRLLVTNLRILWHSLALSRVNVSVGYNCILNITTRTANSKLRGQTEALYILTKCNSTRFEFIFTNLVPGSPRLFTSVMAVHRAYETSKMYRDFKLRSALIQNKQLRLLPQEHVYDKINGVWNLSSDQGNLGTFFITNVRIVWHANMNDSFNVSIPYLQIRSIKIRDSKFGLALVIESSQQSGGYVLGFKIDPVEKLQESVKEINSLHKVYSASPIFGVDYEMEEKPQPLEALTVEQIQDDVEIDSDGHTDAFVAYFADGNKAQDREPVFSEELGLAIEKLKDGFTLQGLWEVMS [Q309A] | with no effect
MSVLDALWEDRDVRFDLSAQQMKTRPGEVLIDCLDSIEDTKGNNGDRGRLLVTNLRILWHSLALSRVNVSVGYNCILNITTRTANSKLRGQTEAEYILTKCNSTRFEFIFTNLVPGSPRLFTSVMAVHRAYETSKMYRDFKLRSALIQNKQLRLLPQEHVYDKINGVWNLSSDQGNLGTFFITNVRIVWHANMNDSFNVSIPYLQIRSIKIRDSKFGLALVIESSQQSGGYVLGFKIDPVEKLQESVKEINSLHKVYSASPIFGVDYEMEEKPQPLEALTVEQIQDDVEIDSDGHTDAFVAYFADGNKQQDREPVFSEELGLAIEKLKDGFTLQGLWEVMS [L95E] | disrupting interaction strength
MSVLDALWEDRDVRFDLSAQQMKTRPGEVLIDCLDSIEDTKGNNGDRGRLLVTNLRILWHSLALSRVNVSVGYNCILNITTRTANSKLRGQTEALYILTKCNSTRFEFIFTNLVPGSPRLFTSVMAVHRAYETSKMYRDFKLRSALIQNKQLRLLPQEHVYDKINGVWNLSSDQGNLGTFFITNVRIVWHANMNDSFNVSIPYLQIRSIKIRDSKFGLALVIESSQQSGGYVLGFKIDPVEKLQESVKEINSLHKVYSASPIFGVDYEMEEKPQPLEAETVEQIQDDVEIDSDGHTDAFVAYFADGNKQQDREPVFSEELGLAIEKLKDGFTLQGLWEVMS [L279E] | with no effect
MSVLDALWEDRDVRFDLSAQQMKTRPGEVLIDCLDSIEDTKGNNADRGRLLVTNLRILWHSLALSRVNVSVGYNCILNITTRTANSKLRGQTEALYILTKCNSTRFEFIFTNLVPGSPRLFTSVMAVHRAYETSKMYRDFKLRSALIQNKQLRLLPQEHVYDKINGVWNLSSDQGNLGTFFITNVRIVWHANMNDSFNVSIPYLQIRSIKIRDSKFGLALVIESSQQSGGYVLGFKIDPVEKLQESVKEINSLHKVYSASPIFGVDYEMEEKPQPLEALTVEQIQDDVEIDSDGHTDAFVAYFADGNKQQDREPVFSEELGLAIEKLKDGFTLQGLWEVMS [G45A] | with no effect
MSVLDALWEDRDVRFDLSAQQMKTRPGEVLIDCLDSIEDTKGNNGDRGRLLVTNLRILWHSLALSRVNVSVGYNCILNITTRTANSKLRGQTEALYILTKCNSTRFEFIFTNLVPGSPRLFTSVMAVHRAYETSKMYRDFKLRSALIQNKQLRLLPQEHVYDKINGVWNLSSDQGNLGTFFITNVRIVWHANMNDSFNVSIPYLQIRSIKIRDSKFGLALVIESSQQSGGYVLGFKIDPVEKLQESVKEENSLHKVYSASPIFGVDYEMEEKPQPLEALTVEQIQDDVEIDSDGHTDAFVAYFADGNKQQDREPVFSEELGLAIEKLKDGFTLQGLWEVMS [I250E] | with no effect
MSVLDALWEDRDVRFDLSAQQMKTRPGEVLIDCLDSIEDTKGNNGDRGRLLVTNLRILWHSLALSRVNVSVGYNCILNITTRTANSKLRGQTEALYILTKCNSTRFEFIFTNLVPGSPKLFTSVMAVHRAYETSKMYRDFKLRSALIQNKQLRLLPQEHVYDKINGVWNLSSDQGNLGTFFITNVRIVWHANMNDSFNVSIPYLQIRSIKIRDSKFGLALVIESSQQSGGYVLGFKIDPVEKLQESVKEINSLHKVYSASPIFGVDYEMEEKPQPLEALTVEQIQDDVEIDSDGHTDAFVAYFADGNKQQDREPVFSEELGLAIEKLKDGFTLQGLWEVMS [R119K] | with no effect
MSVLDALWEDRDVRFDLSAQQMKTRPGEVLIDCLDSIEDTKGNNGDRGRLLVTNLRILWHSLALSRVNVSVGYNCILNITTRTANSKLRGQTEALYILKKCNSTRFEFIFTNLVPGSPRLFTSVMAVHRAYETSKMYRDFKLRSALIQNKQLRLLPQEHVYDKINGVWNLSSDQGNLGTFFITNVRIVWHANMNDSFNVSIPYLQIRSIKIRDSKFGLALVIESSQQSGGYVLGFKIDPVEKLQESVKEINSLHKVYSASPIFGVDYEMEEKPQPLEALTVEQIQDDVEIDSDGHTDAFVAYFADGNKQQDREPVFSEELGLAIEKLKDGFTLQGLWEVMS [T99K] | with no effect
MSVLDALWEARDVRFDLSAQQMKTRPGEVLIDCLDSIEDTKGNNGDRGRLLVTNLRILWHSLALSRVNVSVGYNCILNITTRTANSKLRGQTEALYILTKCNSTRFEFIFTNLVPGSPRLFTSVMAVHRAYETSKMYRDFKLRSALIQNKQLRLLPQEHVYDKINGVWNLSSDQGNLGTFFITNVRIVWHANMNDSFNVSIPYLQIRSIKIRDSKFGLALVIESSQQSGGYVLGFKIDPVEKLQESVKEINSLHKVYSASPIFGVDYEMEEKPQPLEALTVEQIQDDVEIDSDGHTDAFVAYFADGNKQQDREPVFSEELGLAIEKLKDGFTLQGLWEVMS [D10A] | with no effect
MSVLDALWEDRDVRFDLSAQQMKTRPGEVLIKCLDSIEDTKGNNGDRGRLLVTNLRILWHSLALSRVNVSVGYNCILNITTRTANSKLRGQTEALYILTKCNSTRFEFIFTNLVPGSPRLFTSVMAVHRAYETSKMYRDFKLRSALIQNKQLRLLPQEHVYDKINGVWNLSSDQGNLGTFFITNVRIVWHANMNDSFNVSIPYLQIRSIKIRDSKFGLALVIESSQQSGGYVLGFKIDPVEKLQESVKEINSLHKVYSASPIFGVDYEMEEKPQPLEALTVEQIQDDVEIDSDGHTDAFVAYFADGNKQQDREPVFSEELGLAIEKLKDGFTLQGLWEVMS [D32K] | with no effect
MSVLDALWEDRDVRFDLSAQQMKTRPGEVLIDCLDSIEDTKGNNGDRGRLLVTNLRILWHSLALSRVNVSVGYNCILNITTRTANSKLRGQTEALYILTKCNSTRFEFIFTNLVPGSPRLFTSVMAVHRAYETSKMYRDFKLRSALIQNKQLRLLPQEHVYDKINGVWNLSSDQGNLGTFFITNVRIVWHANMNDSFNVSKPYLQIRSIKIRDSKFGLALVIESSQQSGGYVLGFKIDPVEKLQESVKEINSLHKVYSASPIFGVDYEMEEKPQPLEALTVEQIQDDVEIDSDGHTDAFVAYFADGNKQQDREPVFSEELGLAIEKLKDGFTLQGLWEVMS [I201K] | with no effect
MSVLDALWEDRDVRFDLSAQQMKTRPGEVLIDCLDSIEDTKGNNGDRGRLLVTNLRILWHSLALSRVNVSVGYNCILNITTRTANSKLRGQTEALYILTKCNSTRFEFIFTNLVPGSPRLFTSVMAVHRAYETSKMYRDFKLRSALIQNKQLRLLPQEHVYDKINGVWNLSSDQGNLGTFFITNVRIVWHANMNDSFNVSIPYLQIRSIKIRDSKFGLALVEESSQQSGGYVLGFKIDPVEKLQESVKEINSLHKVYSASPIFGVDYEMEEKPQPLEALTVEQIQDDVEIDSDGHTDAFVAYFADGNKQQDREPVFSEELGLAIEKLKDGFTLQGLWEVMS [I222E] | disrupting interaction strength
MSVLDALWEDRDVRFDLSAQQMKTRPGEVLIDCLDSIEDTKGNNGDRGRLLVTNLRILWHSLALSRVNVSVGYNCILNITTRTANSKLRGQTEALYILTKCNSTRFEFIFTNLVPGSPRLFTSVMAVHRAYETSKMYRDFKLRSALIQNKQLRLLPQEHVYDKINGVWNLSSDQGNLGTFFITNVRIVWHANMNDSFNVSIPYLQIRSIKIRDSKFGLALVIESSQQSGGYVLGFKIDEVEKLQESVKEINSLHKVYSASPIFGVDYEMEEKPQPLEALTVEQIQDDVEIDSDGHTDAFVAYFADGNKQQDREPVFSEELGLAIEKLKDGFTLQGLWEVMS [P239E] | with no effect
MSVLDALWEDRDVRFDLSAQQMKTRPGEVLIDCLDSIEDTKGNNGDRARLLVTNLRILWHSLALSRVNVSVGYNCILNITTRTANSKLRGQTEALYILTKCNSTRFEFIFTNLVPGSPRLFTSVMAVHRAYETSKMYRDFKLRSALIQNKQLRLLPQEHVYDKINGVWNLSSDQGNLGTFFITNVRIVWHANMNDSFNVSIPYLQIRSIKIRDSKFGLALVIESSQQSGGYVLGFKIDPVEKLQESVKEINSLHKVYSASPIFGVDYEMEEKPQPLEALTVEQIQDDVEIDSDGHTDAFVAYFADGNKQQDREPVFSEELGLAIEKLKDGFTLQGLWEVMS [G48A] | with no effect
MSVLDALWEDRDVRFDLSAQQMKTRPGEVLIDCLDSIEDTKGNNGDRGRLLVTNLRILWHSLALSRVNVSVGYNCILNITTRTANSKLRGQTEALYILTKCNSTRFEFIFTNLVPGSPRLFTSVMAVHRAYETSKMYRDFKLRSALIQNKQLRLLPQEHVYDKINGVWNLSSDQGNLGTFFITNVRIVWHANMNDSFNVSIPYLQIRSIKIRDSKFGLALVIESSQQSGGYVLGFKIDPVEKLQESVKEINSLHKVYSASPIFGVDYEMEEKPQPLEALTVEQIQDDVEIDSDGHTDAFVAYFADANKQQDREPVFSEELGLAIEKLKDGFTLQGLWEVMS [G306A] | with no effect
MSVLDALWEDRDVRFDLSAQQMKTRPGEVLIDCLDSIEDTKGNNGDRGRLLVTNLRILWHSLALSRVNVSVGYNCILNITTRTANSKLRGQTEALYIETKCNSTRFEFIFTNLVPGSPRLFTSVMAVHRAYETSKMYRDFKLRSALIQNKQLRLLPQEHVYDKINGVWNLSSDQGNLGTFFITNVRIVWHANMNDSFNVSIPYLQIRSIKIRDSKFGLALVIESSQQSGGYVLGFKIDPVEKLQESVKEINSLHKVYSASPIFGVDYEMEEKPQPLEALTVEQIQDDVEIDSDGHTDAFVAYFADGNKQQDREPVFSEELGLAIEKLKDGFTLQGLWEVMS [L98E] | with no effect
MSVLDALWEDRDVRFDLSAQQMKTRPGEVLIDCLDSIEDTKGNNGDRGRLLVTNLRILWHSLALSRVNVSVGYNCILNITTRTANSKLRGQTEALYILTKCNSTRFEFIFTNLVPGSPRLFTSVMAVHRAYETSKMYRDFKLRSALIQNKQLRLLPQEHVYDKINGVWNLSSDQGNLGTFFITNVRIVWHANMNDSFNVSIPYLQIRSIKIRDSKFGLALVIESSQQSGGYVLGFKIDPVEKLQESVKEINSLHKVYSASPIFGVDYEMEEKPQPLEALTVEQIQDDVEIDSDGHTDAFVAYFADGNKQQDRKPVFSEELGLAIEKLKDGFTLQGLWEVMS [E313K] | with no effect
MSVLDALWEDRDVRFDLSAQQMKTRPGEVLIDCLDSIEDTKGNNGDRGRLLVTNLRILWHSLALSRVNVSVGYNCILNITTRTANSKLRGQTEALYILTKCNSTRFEFIFTNLVPGSPRLFTSEMAVHRAYETSKMYRDFKLRSALIQNKQLRLLPQEHVYDKINGVWNLSSDQGNLGTFFITNVRIVWHANMNDSFNVSIPYLQIRSIKIRDSKFGLALVIESSQQSGGYVLGFKIDPVEKLQESVKEINSLHKVYSASPIFGVDYEMEEKPQPLEALTVEQIQDDVEIDSDGHTDAFVAYFADGNKQQDREPVFSEELGLAIEKLKDGFTLQGLWEVMS [V124E] | with no effect
